From patent US20040086945A1, “Hairless protein-interacting partner complexes and methods thereto” (The Procter & Gamble Company, priority 2002, published 2004)

B1: Human splicing factor (CC1.4): human HRt interacting partner, GenBank L10911, SEQ ID NO:59/60 (protein, listed as Homo sapiens)
chain: EFAAASTTAPVIIFVSKMFAVDAKALPQNKPRPLTQEEIAQRRERARQRHAEKLAAAQGQAPLEPTQDGSAIETCPKGEEPRGDEQQVESMTPKPVLQEENNQESFIAFARVFSGVARRGKKIFVLGPKYSPLEFLRRVPLGFSAPPDGLPQVPHMAYCALENLYLLMGRELEYLEEVPPGNVLGIGGLQDFVLKSATLCSLPSCPPFIPLNFEATPIVRVAVEPKHPSEMPQLVKG
B2: Human neuronal membrane glycoprotein M6b1: human HRt interacting partner, GenBank AF016004, SEQ ID NO:56 (protein, UniProt Q13491 1-265, looked up)
Neuronal membrane …: MKPAMETAAEENTEQSQERKGCFECCIKCLGGVPYASLVATILCFSGVALFCGCGHVALAGTVAILEQHFSTNASDHALLSEVIQLMQYVIYGIASFFFLYGIILLAEGFYTTSAVKELHGEFKTTACGRCISGMFVFLTYVLGVAWLGVFGFSAVPVFMFYNIWSTCEVIKSPQTNGTTGVEQICVDIRQYGIIPWNAFPGKICGSALENICNTNEFYMSYHLFIVACAGAGATVIALLIYMMATTYNYAVLKFKSREDCCTKF
B3: Human cDNA FLJ20109 fis clone COL05067: human HRt interacting partner, GenBank BC009472, SEQ ID NO:72/73 (protein, listed as Homo sapiens)
chain: VASPPVPCSAAFRSLHISVARDLKMRLHLLLLLALCGAGTTAAELSYSLRGNWSICNGNGSLELPGAVPGCVHSALFQ
B4: Human metallothionein from cadmium-treated cells: human HRt interacting partner, GenBank V00594, SEQ ID NO:3/4 (protein, listed as Homo sapiens)
chain: VPANPRATCPDSSRLFSSPWIPTAPAPPVTPAPAPAPANAKSANAPPARKAAAPAALWAVPSVPRAASAKGRRTSAAAAPDAGTAPLPDVKNATSTNLDFLCTTLTVTVCYIPFSMK
B5: Human PACE4 (SPC4): human HRt interacting partner, GenBank AB001899, SEQ ID NO:69 (protein, UniProt P29122 150-969, looked up)
Proprotein convertase …: QVRSDPQALYFNDPIWSNMWYLHCGDKNSRCRSEMNVQAAWKRGYTGKNVVVTILDDGIERNHPDLAPNYDSYASYDVNGNDYDPSPRYDASNENKHGTRCAGEVAASANNSYCIVGIAYNAKIGGIRMLDGDVTDVVEAKSLGIRPNYIDIYSASWGPDDDGKTVDGPGRLAKQAFEYGIKKGRQGLGSIFVWASGNGGREGDYCSCDGYTNSIYTISVSSATENGYKPWYLEECASTLATTYSSGAFYERKIVTTDLRQRCTDGHTGTSVSAPMVAGIIALALEANSQLTWRDVQHLLVKTSRPAHLKASDWKVNGAGHKVSHFYGFGLVDAEALVVEAKKWTAVPSQHMCVAASDKRPRSIPLVQVLRTTALTSACAEHSDQRVVYLEHVVVRTSISHPRRGDLQIYLVSPSGTKSQLLAKRLLDLSNEGFTNWEFMTVHCWGEKAEGQWTLEIQDLPSQVRNPEKQGKLKEWSLILYGTAEHPYHTFSAHQSRSRMLELSAPELEPPKAALSPSQVEVPEDEEDYTAQSTPGSANILQTSVCHPECGDKGCDGPNADQCLNCVHFSLGSVKTSRKCVSVCPLGYFGDTAARRCRRCHKGCETCSSRAATQCLSCRRGFYHHQEMNTCVTLCPAGFYADESQKNCLKCHPSCKKCVDEPEKCTVCKEGFSLARGSCIPDCEPGTYFDSELIRCGECHHTCGTCVGPGREECIHCAKNFHFHDWKCVPACGEGFYPEEMPGLPHKVCRRCDENCLSCAGSSRNCSRCKTGFTQLGTSCITNHTCSNADETFCEMVKSNRLCERKLFIQFCCRTCLLAG
B6: Human […]-mannosidase: human HRt interacting partner, GenBank U60337, SEQ ID NO:80/81 (protein, UniProt O00462 18-879, looked up)
Beta-mannosidase: AAELSYSLRGNWSICNGNGSLELPGAVPGCVHSALFQQGLIQDSYYRFNDLNYRWVSLDNWTYSKEFKIPFEISKWQKVNLILEGVDTVSKILFNEVTIGETDNMFNRYSFDITNVVRDVNSIELRFQSAVLYAAQQSKAHTRYQVPPDCPPLVQKGECHVNFVRKEQCSFSWDWGPSFPTQGIWKDVRIEAYNICHLNYFTFSPIYDKSAQEWNLEIESTFDVVSSKPVGGQVIVAIPKLQTQQTYSIELQPGKRIVELFVNISKNITVETWWPHGHGNQTGYNMTVLFELDGGLNIEKSAKVYFRTVELIEEPIKGSPGLSFYFKINGFPIFLKGSNWIPADSFQDRVTSELLRLLLQSVVDANMNTLRVWGGGIYEQDEFYELCDELGIMVWQDFMFACALYPTDQGFLDSVTAEVAYQIKRLKSHPSIIIWSGNNENEEALMMNWYHISFTDRPIYIKDYVTLYVKNIRELVLAGDKSRPFITSSPTNGAETVAEAWVSQNPNSNYFGDVHFYDYISDCWNWKVFPKARFASEYGYQSWPSFSTLEKVSSTEDWSFNSKFSLHRQHHEGGNKQMLYQAGLHFKLPQSTDPLRTFKDTIYLTQVMQAQCVKTETEFYRRSRSEIVDQQGHTMGALYWQLNDIWQAPSWASLEYGGKWKMLHYFAQNFFAPLLPVGFENENTFYIYGVSDLHSDYSMTLSVRVHTWSSLEPVCSRVTERFVMKGGEAVCLYEEPVSELLRRCGNCTRESCVVSFYLSADHELLSPTNYHFLSSPKEAVGLCKAQITAIISQQGDIFVFDLETSAVAPFVWLDVGSIPGRFSDNGFLMTEKTRTILFYPWEPTSKNELEQSFHVTSLTDIY
B7: Human MDC15: human HRt interacting partner, GenBank U46005, SEQ ID NO:77 (protein, listed as Homo sapiens)
chain: LGLQWHADGRLTKKLNGLADLEACIKTLHGQGFSQPSLTTLTAFSVEGCLQEHCVILIQSW

What was measured:
[1] = test system: Male C3H mice; assay: Animal model for hair growth stimulation (HGS) activity; type: in vivo; settings: applied daily for 17 days to shaved, Nair-treated back; day 17 compared to control treatment
Experimental: Male C3H mice (˜42-48 days old and weighing ˜24 g) purchased from Harlan are acclimatized for 2 days and ˜2 cm^2 area on their back is shaved closely with an electric hair trimmer. To the shaved area, ˜300 μl of Nair lotion (NEW! Quick'n Easy 4 Minute Formula) is thinly smeared with a gloved fingertip for ˜30 sec. The area is wiped with Kimwipes for ˜15 sec and immediately washed under a gentle stream of lukewarm water for ˜50 sec and patted dry with Kimwipes. Test materials are applied (5 animals/test material) daily for 17 days. The shaved area is visually observed every day for anagen conversion and hair growth. Animal backs are photographed on day 8 and 17. In this model Triiodo thyronine (T3) has clear HGS activity (100% HGS activity), as evidenced by early onset of pigmentation and clear increase in hair length at day 17 compared to control treatment (60% ethanol, 20% propylene glycol and 20% Transcutol).

[2] = biological target: T1, mouse HRt (hairless protein aa 490-1182) (Mus musculus, UniProt Q61645); assay: Yeast two-hybrid screen of BD-HRt against human brain cDNA library in AD vector, lacZ coloration on QDO-Xgal plates; type: cell-based; settings: BD-HRt(mouse) x human brain cDNA library in AD-vector
T1 construct: HR cDNA corresponding to the C-terminal half of HR protein (aa residues 490 to 1182, hereinafter HRt); expressed in transfected cells; host or cells: Saccharomyces cerevisiae PJ69-2A transformed with BD-HRt plasmid, mated with Y187 carrying the human brain cDNA library in pACT2
T1 sequence (Q61645 490-1182): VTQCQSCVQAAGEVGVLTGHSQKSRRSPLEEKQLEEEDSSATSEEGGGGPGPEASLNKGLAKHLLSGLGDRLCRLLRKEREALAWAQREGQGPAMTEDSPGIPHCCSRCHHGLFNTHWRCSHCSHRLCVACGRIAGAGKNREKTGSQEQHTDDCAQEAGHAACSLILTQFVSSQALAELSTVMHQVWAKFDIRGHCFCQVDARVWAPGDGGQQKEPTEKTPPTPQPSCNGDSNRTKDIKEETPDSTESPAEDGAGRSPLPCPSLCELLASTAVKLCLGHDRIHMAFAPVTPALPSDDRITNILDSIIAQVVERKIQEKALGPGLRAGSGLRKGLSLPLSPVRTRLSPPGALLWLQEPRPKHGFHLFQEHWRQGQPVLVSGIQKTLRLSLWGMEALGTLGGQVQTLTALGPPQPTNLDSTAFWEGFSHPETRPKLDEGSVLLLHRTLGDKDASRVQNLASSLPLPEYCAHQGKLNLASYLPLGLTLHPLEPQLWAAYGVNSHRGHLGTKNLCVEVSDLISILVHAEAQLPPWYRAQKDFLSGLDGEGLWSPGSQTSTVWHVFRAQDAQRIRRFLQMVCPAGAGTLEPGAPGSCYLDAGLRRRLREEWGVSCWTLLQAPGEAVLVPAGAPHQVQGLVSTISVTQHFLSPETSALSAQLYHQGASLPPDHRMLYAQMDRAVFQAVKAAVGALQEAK
Source text: The present example provides for Hairless Protein (HR) interacting partners (HR-IP) using the yeast two-hybrid technology. […] Yeast cells expressing BD-HRt are mated with yeast cells pretransformed with human brain cDNA library in the activation domain (AD) vector.
Cloning of HRt into GAL4 binding domain (BD) yeast two-hybrid (Y2H) vector: The HRt insert from pET32a-HRt is excised as an Eco RI-Xho I fragment (there is a unique Xho I site just adjacent to HRt insert) and inserted at the Eco RI-Sal I sites of Y2H-BD vector pGBKT7 (Catalog No. K1612-B; a component of Matchmaker two-hybrid System 3 (Catalog No. K1612-1) BD Biosciences Clontech, Palo Alto, Calif.) to obtain pGBKT7-HRt in which HRt is fused in-frame to GAL 4 DNA BD (this plasmid is also designated BD-HRt).
Pretransformed human brain […] cDNA Library Screen for HRt interaction partners: Pretransformed human brain […] high-complexity GAL4 cDNA library that has already been amplified and introduced into yeast strain Y187 (MATα) is used to screen for HRt interacting proteins. […] The library host strain Y187 provides a third reporter gene (lacZ) for optional quantification of signal strength. The protocol as described in Clontech user manual (PT3183-1) is used. Briefly, the library is mixed with PJ69-2A strain that has been transformed with the BD-HRt plasmid in YPD medium containing adenine hemisulfate (0.004%) and kanamycin (0.005%) and incubated for 20-24 h at 30° C. The next day, the mating mixture is plated on Leu, Trp, His TDO that selects for two-hybrid interactions, and then the positive clones are screened for growth on Leu, Trp, His, Ade QDO, which is a more stringent condition for interaction. Colonies that grew well on QDO are also screened for lacZ expression by streaking on QDO-Xgal plates. Based on a visual assessment of colonies for the intensity of blue color, the clones are classified into high (H), medium (M), low (L) or very low (VL) categories.
The positive clones are expected to contain an AD-IP (interacting partner) that interacts with BD-HRt. To characterize IP, the sequence of IP is determined and matched to the human genome database. For this purpose, total DNA is isolated from the positive clones and PCR amplified with […] AD LD (long distance)-insert screening amplimers (Catalog No.9103-1; BD Biosciences Clontech, PaloAlto, Calif.). Reaction is conducted in 50 μl volume for 35 cycles using the conditions recommended with the Advantage2 PCR kit (Catalog No. K1910-1; BD Biosciences Clontech, PaloAlto, Calif.).

| Molecule | HGS activity [1] [%] | XGAL (rate and intensity of coloration of colonies on Xgal) [2] |
| --- | --- | --- |
| N[C@@H](Cc1cc(I)c(Oc2ccc(O)c(I)c2)c(I)c1)C(=O)O [Triiodo thyronine] | 100 | – |
| B1 | – | L/VL |
| B2 | – | L (L = Low blue in 5-7 days) |
| B3 | – | L (L = Low blue in 5-7 days) |
| B4 | – | H (H = Intense blue within 2-3 days) |
| B5 | – | L (L = Low blue in 5-7 days) |
| B6 | – | L (L = Low blue in 5-7 days) |
| B7 | – | L (L = Low blue in 5-7 days) |
